{
  "source": "the MegaScale stability set (Tsuboyama et al. 2023)",
  "parents": {"B1": {"name": "2M8U (parent)", "chain": "TKAQVIEAFKVFDRDGNGYVTVDYLRKVLNELGDMMPADEIEEMIYEADPQNSGYVQYETFVGMLFL"}},
  "data": [
    {"variants_of": "B1", "assay": "folding stability dG (cDNA display proteolysis); higher = more stable", "conditions": "PBS, room temperature", "units": {"folding stability dG": "kcal/mol"}, "values": [
      {"variant": "TKAQVIEAFKVFDRDDNGYVTVDYLRKVLNELGDMMPADEIEEMIYEADPQNSGYVQYETFVGMLFL", "note": "[G16D]", "folding stability dG": 3.28},
      {"variant": "TKAQVIEAFKVFDRDINGYVTVDYLRKVLNELGDMMPADEIEEMIYEADPQNSGYVQYETFVGMLFL", "note": "[G16I]", "folding stability dG": 2.21},
      {"variant": "TKAQVIEAFKVFDRDGNGYVTVDYLRKVLNELGDMMPADEIEEMIYEADPQNSGYVQYETFVGMLFM", "note": "[L67M]", "folding stability dG": 3.46},
      {"variant": "TKAQVIEAFKVFDRDGNGYVTVDYLRKVLNELGDMMPADEIEEMIYEADPQNSGYVQYETFVGMLFS", "note": "[L67S]", "folding stability dG": 3.6},
      {"variant": "TKAQVIEAFKVFDRDGNGYVTVDYLRKVLNELGDMMPADEIEEMIYVADPQNSGYVQYETFVGMLFL", "note": "[E47V]", "folding stability dG": 3.85},
      {"variant": "TKAQVIEAFKVFDRDGNGYVTVDYLRKVLNELGDMMPADEIEEMIYEIDPQNSGYVQYETFVGMLFL", "note": "[A48I]", "folding stability dG": 3.33},
      {"variant": "TKAQVIEAFKVFDRDGNGYVTVDYLRKVLNELGDMMPADEIPEMIYEADPQNSGYVQYETFVGMLFL", "note": "[E42P]", "folding stability dG": 2.64},
      {"variant": "TKAQVIEAFKVFDRDGNGYVTVDYLRKVLNELGDMMPADEIERMIYEADPQNSGYVQYETFVGMLFL", "note": "[E43R]", "folding stability dG": 4.37},
      {"variant": "TKAQVIEAFKVFDRDGNGYVTVDYLRKVLNELGDMMPADEIEEMIYEADPQNSGYNQYETFVGMLFL", "note": "[V56N]", "folding stability dG": 1.99},
      {"variant": "TKAQVIEAFKVFDRDGNGYMTVDYLRKVLNELGDMMPADEIEEMIYEADPQNSGYVQYETFVGMLFL", "note": "[V20M]", "folding stability dG": 2.59},
      {"variant": "TKAQVIEAFKVFDRDGNGYVTVDYLRKVLNELGDMMPADEIEEMIYEADPQNSGYVQYETSVGMLFL", "note": "[F61S]", "folding stability dG": 1.33},
      {"variant": "TKAQVIEAFKVFDRDGNGYVTVDYLRKVLNELGDMMPADEIEEMIYEADPQNSGYVQYETVVGMLFL", "note": "[F61V]", "folding stability dG": 3.46},
      {"variant": "TKAQVIEAFKVFDRDGNGYVTVDYLRKVLNELGDMMPADEIEEMRYEADPQNSGYVQYETFVGMLFL", "note": "[I45R]", "folding stability dG": 2.06},
      {"variant": "TKAQVIEAFKVFDRDGNGYVTVDYLRKVLNELGDMMPADELEEMIYEADPQNSGYVQYETFVGMLFL", "note": "[I41L]", "folding stability dG": 3.83},
      {"variant": "TKAQVIEAFKVFDRDGNGYVTVDYLRKVLNELGDMMPADEKEEMIYEADPQNSGYVQYETFVGMLFL", "note": "[I41K]", "folding stability dG": 2.59},
      {"variant": "TKAQVIEAFKVFDRDGNGYVTVDYLRKVLNELGPMMPADEIEEMIYEADPQNSGYVQYETFVGMLFL", "note": "[D34P]", "folding stability dG": 3.89},
      {"variant": "TKAQVIEAFKVFDRDGNGYVTVDYLRKVLNELGDMMQADEIEEMIYEADPQNSGYVQYETFVGMLFL", "note": "[P37Q]", "folding stability dG": 3.43},
      {"variant": "TKAQVIEAFKVFDRDGNGYVTVDYLRKVLNELGDMMPADEIEEMIYEADPQNSGYVQYETFVWMLFL", "note": "[G63W]", "folding stability dG": 3.31},
      {"variant": "TKAQVIEAFKVFDRDGNGYVTVDYLRKVLNELGDMMPADEIEEMIYEATPQNSGYVQYETFVGMLFL", "note": "[D49T]", "folding stability dG": 2.83},
      {"variant": "TKAQVIEAFKRFDRDGNGYVTVDYLRKVLNELGDMMPADEIEEMIYEADPQNSGYVQYETFVGMLFL", "note": "[V11R]", "folding stability dG": 3.63},
      {"variant": "TKAQVIEAFKQFDRDGNGYVTVDYLRKVLNELGDMMPADEIEEMIYEADPQNSGYVQYETFVGMLFL", "note": "[V11Q]", "folding stability dG": 3.65},
      {"variant": "TKAQVIEAFKVFDRDGNGYVTVDYLRKVLNELGDMMPWDEIEEMIYEADPQNSGYVQYETFVGMLFL", "note": "[A38W]", "folding stability dG": 4},
      {"variant": "TKAQVIEAFKVFDRQGNGYVTVDYLRKVLNELGDMMPADEIEEMIYEADPQNSGYVQYETFVGMLFL", "note": "[D15Q]", "folding stability dG": 3.02},
      {"variant": "TKAQVIEAFKVFDRDGNGYVTVDYLRKVLNELGDMMPADEIEEMIYEADAQNSGYVQYETFVGMLFL", "note": "[P50A]", "folding stability dG": 3.3},
      {"variant": "TKAQVIEAFKVFDRDGNGYVTVDYLRKVLNELGDMMPADEIEEMIYEADNQNSGYVQYETFVGMLFL", "note": "[P50N]", "folding stability dG": 3.05},
      {"variant": "TKAQVIEAFKVFDRDGNGYVTVDYLRKVLNELGDEMPADEIEEMIYEADPQNSGYVQYETFVGMLFL", "note": "[M35E]", "folding stability dG": 2.98},
      {"variant": "TKDQVIEAFKVFDRDGNGYVTVDYLRKVLNELGDMMPADEIEEMIYEADPQNSGYVQYETFVGMLFL", "note": "[A3D]", "folding stability dG": 3.28},
      {"variant": "TKAQVIEAFKVFDRDGNGYVTVDYLPKVLNELGDMMPADEIEEMIYEADPQNSGYVQYETFVGMLFL", "note": "[R26P]", "folding stability dG": 1.55},
      {"variant": "TKAQVIEAFKVFDRDGNGYVTVDHLRKVLNELGDMMPADEIEEMIYEADPQNSGYVQYETFVGMLFL", "note": "[Y24H]", "folding stability dG": 4.05},
      {"variant": "TKAQVIEAFKVFDRDGNGYVTVDDLRKVLNELGDMMPADEIEEMIYEADPQNSGYVQYETFVGMLFL", "note": "[Y24D]", "folding stability dG": 4.63},
      {"variant": "TKAQVIEAFKVFDRDGNGYVNVDYLRKVLNELGDMMPADEIEEMIYEADPQNSGYVQYETFVGMLFL", "note": "[T21N]", "folding stability dG": 3.24},
      {"variant": "TKAQVIEAFKVFDRDGNGYVPVDYLRKVLNELGDMMPADEIEEMIYEADPQNSGYVQYETFVGMLFL", "note": "[T21P]", "folding stability dG": 3.46},
      {"variant": "TKAQVIEAFKVFDRDGNGYVTVDYLRKVLNERGDMMPADEIEEMIYEADPQNSGYVQYETFVGMLFL", "note": "[L32R]", "folding stability dG": 2.6},
      {"variant": "TKAQVIEAFKVFDRDGNGYVTVDYLRKVLNELGDMMPADEIEESIYEADPQNSGYVQYETFVGMLFL", "note": "[M44S]", "folding stability dG": 2.96},
      {"variant": "TKAQVIEAFKVFDRDGNGYVTTDYLRKVLNELGDMMPADEIEEMIYEADPQNSGYVQYETFVGMLFL", "note": "[V22T]", "folding stability dG": 3.19},
      {"variant": "TKAQVIEHFKVFDRDGNGYVTVDYLRKVLNELGDMMPADEIEEMIYEADPQNSGYVQYETFVGMLFL", "note": "[A8H]", "folding stability dG": 3.02},
      {"variant": "TKAQVIESFKVFDRDGNGYVTVDYLRKVLNELGDMMPADEIEEMIYEADPQNSGYVQYETFVGMLFL", "note": "[A8S]", "folding stability dG": 3.11},
      {"variant": "TKAQVIEKFKVFDRDGNGYVTVDYLRKVLNELGDMMPADEIEEMIYEADPQNSGYVQYETFVGMLFL", "note": "[A8K]", "folding stability dG": 3.62},
      {"variant": "TKAEVIEAFKVFDRDGNGYVTVDYLRKVLNELGDMMPADEIEEMIYEADPQNSGYVQYETFVGMLFL", "note": "[Q4E]", "folding stability dG": 3.41},
      {"variant": "TKAQVIEAFKVFDRDGNGYVTVDYLRKVLNELGDMMPADEIEEMIYEADPQNSGYVQYWTFVGMLFL", "note": "[E59W]", "folding stability dG": 3.37}
    ]}
  ]
}
